Measurements: US20240368668A1, “SUBSTRATES AND BIOMARKERS OF ADAMTS7” (The Broad Institute, Inc., priority 2021, published 2024)

Biological target: T1, mouse ADAMTS7 (Mus musculus, UniProt Q68SA9, E373Q)
T1 construct: Full-length mouse Adamts7 1-1857 (Uniprot Q68SA9, WT or E373Q catalytic mutant); expressed in transfected cells; host or cells: Human Coronary Artery Smooth Muscle Cells (HCA-SMC, Lonza), adenovirus 50 MOI
T1 sequence (Q68SA9 221-1657 E373Q): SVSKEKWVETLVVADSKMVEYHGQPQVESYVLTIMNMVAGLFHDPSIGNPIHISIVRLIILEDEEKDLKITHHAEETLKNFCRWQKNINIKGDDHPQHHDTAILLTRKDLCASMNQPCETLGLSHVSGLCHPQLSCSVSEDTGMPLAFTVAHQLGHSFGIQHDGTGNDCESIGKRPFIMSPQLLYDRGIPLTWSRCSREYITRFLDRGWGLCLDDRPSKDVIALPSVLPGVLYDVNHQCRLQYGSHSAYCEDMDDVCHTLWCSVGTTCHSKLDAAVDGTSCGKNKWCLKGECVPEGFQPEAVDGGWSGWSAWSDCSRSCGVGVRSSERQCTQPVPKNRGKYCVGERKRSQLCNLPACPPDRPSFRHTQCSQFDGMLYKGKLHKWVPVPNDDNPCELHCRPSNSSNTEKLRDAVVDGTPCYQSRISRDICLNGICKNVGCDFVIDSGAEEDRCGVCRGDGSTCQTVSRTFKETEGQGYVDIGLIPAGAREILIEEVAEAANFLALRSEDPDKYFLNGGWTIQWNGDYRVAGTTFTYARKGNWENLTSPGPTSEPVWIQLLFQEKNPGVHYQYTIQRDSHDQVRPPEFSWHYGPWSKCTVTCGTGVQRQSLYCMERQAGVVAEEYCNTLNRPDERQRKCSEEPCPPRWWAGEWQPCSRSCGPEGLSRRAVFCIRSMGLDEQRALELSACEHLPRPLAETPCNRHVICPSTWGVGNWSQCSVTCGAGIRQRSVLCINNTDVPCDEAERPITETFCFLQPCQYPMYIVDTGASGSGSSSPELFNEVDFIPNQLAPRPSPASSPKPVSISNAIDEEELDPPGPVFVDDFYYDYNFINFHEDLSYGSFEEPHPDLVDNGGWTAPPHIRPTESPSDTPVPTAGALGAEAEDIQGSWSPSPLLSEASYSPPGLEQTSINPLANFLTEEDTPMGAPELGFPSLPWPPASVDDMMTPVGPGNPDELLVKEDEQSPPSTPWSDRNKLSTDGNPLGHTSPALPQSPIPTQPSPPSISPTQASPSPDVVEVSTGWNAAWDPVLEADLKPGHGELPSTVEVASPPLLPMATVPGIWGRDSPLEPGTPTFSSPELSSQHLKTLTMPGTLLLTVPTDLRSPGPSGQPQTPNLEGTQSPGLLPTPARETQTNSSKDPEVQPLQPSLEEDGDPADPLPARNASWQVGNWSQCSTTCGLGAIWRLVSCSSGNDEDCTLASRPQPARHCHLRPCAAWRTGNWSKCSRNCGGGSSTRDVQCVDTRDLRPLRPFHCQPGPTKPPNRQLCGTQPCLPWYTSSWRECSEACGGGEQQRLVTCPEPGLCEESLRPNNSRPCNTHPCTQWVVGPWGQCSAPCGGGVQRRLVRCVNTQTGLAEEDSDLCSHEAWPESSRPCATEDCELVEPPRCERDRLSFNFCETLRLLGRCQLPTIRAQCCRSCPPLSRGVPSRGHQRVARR
Assay: TMT10 TAILS N-terminomics, SMC1 experiment (Ad-mADAMTS7 WT vs EQ vs Luc, technical replicates, trypsin digest)
Format: cell-based
Conditions: TAILS neo-N-terminal peptide abundance; log fold change, Ad-mADAMTS7 EQ over Luc
Outline: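 Full-length mouse ADAMTS7 (WT or E373Q mutant, C-terminal 3xFLAG) or luciferase was transduced via adenovirus, 50 MOI, into HCA-SMC (SMC1, SMC2) or HUVEC. SMC1: pooled media, technical triplicates 400 ug; SMC2: process triplicates 300 ug; HUVEC: process triplicates 200 ug, bFGF2 10 ng/ml.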

Row | logFC.mEQ.over.Luc | Substance
1 | 0.09 | HTRA1_33 (LAAGCPDR; listed as Homo sapiens)
2 | −0.22 | LOX_123 (HWFQAGYSTSR; listed as Homo sapiens)
3 | 0.01 | HSPG2_2333 (LAYPAGSTQPIR; listed as Homo sapiens)
4 | 0.28 | LTBP2_533 (SGEPPRPLPPAAPR; listed as Homo sapiens)
5 | −0.40 | FN1_40 (QSPVAVSQSKPGCYDNGKHYQINQQWER; listed as Homo sapiens)
6 | −0.74 | FBLN2_260 (LGPPAPVQAKAR; listed as Homo sapiens)
7 | −0.12 | ACTB_105 (LTEAPLNPKANR; listed as Homo sapiens)
8 | −1.05 | LTBP1_546 (HVYPVAAKTQLGR; listed as Homo sapiens)
9 | −0.04 | FBN1_53 (LKGPNVCGSR; listed as Homo sapiens)
10 | −0.43 | GALNT2_31 (LAGGAGGGAGR; listed as Homo sapiens)
11 | 0.00 | LOXL2_318 (AYKPEQPLVR; listed as Homo sapiens)
12 | 0.00 | IFI30_43 (YKTGNLYLR; listed as Homo sapiens)
13 | 0.29 | IGFBP7_101 (AAGGPGVSGVCVCKSR; listed as Homo sapiens)
14 | 0.27 | APLP2_579 (ISETPVDVR; listed as Homo sapiens)
15 | −0.22 | EHBP1L1_298 (TAPTPAPR; listed as Homo sapiens)
16 | 0.35 | HLA−C_52 (VDDTQFVR; listed as Homo sapiens)
17 | −0.37 | HSPG2_4004 (SAEPLALGR; listed as Homo sapiens)
18 | −0.13 | FN1_2143 (FEEHGFR; listed as Homo sapiens)
19 | −0.09 | IGFBP3_200 (FSSESKR; listed as Homo sapiens)

Second part, the substance before the results:

Row | Substance | logFC.mEQ.over.Luc
20 | HSPG2_4133 (DGFKGDLCEHEENPCQLR; listed as Homo sapiens) | −0.14
21 | FN1_1143 (LTPGVEYVYTIQVLR; listed as Homo sapiens) | 0.00
22 | HSPG2_1937 (SSAGQQVAR; listed as Homo sapiens) | −0.15
23 | HSPG2_2688 (VADSGEYVCR; listed as Homo sapiens) | 0.14
24 | LOX_124 (WFQAGYSTSR; listed as Homo sapiens) | 0.08
25 | LTBP1_494 (SVQIHQVSR; listed as Homo sapiens) | −0.01
26 | AEBP1_37 (FLEGFLSELEPEPR; listed as Homo sapiens) | −0.18
27 | HSPG2_3542 (IAHVELADAGQYR; listed as Homo sapiens) | −0.07
28 | LTBP1_540 (HQQVIPHVYPVAAKTQLGR; listed as Homo sapiens) | 0.13
29 | IGFBP3_31 (SAGLGPVVR; listed as Homo sapiens) | −0.04
30 | FN1_2217 (FQDTSEYIISCHPVGTDEEPLQFR; listed as Homo sapiens) | 0.14
31 | LOX_126 (QAGYSTSR; listed as Homo sapiens) | 0.02
32 | ACTB_21 (FAGDDAPR; listed as Homo sapiens) | −0.08
